A short description of the series: self-splicing fitness, log relative to wild type (ln ratio); higher = more splicing; Tetrahymena group I intron in knt gene, E. coli kanamycin selection, DiMSum; sequences stand for … in CUCUCU…GGAGGGAAAAGUUAUCAGGCAUGCACCUGGUAGCUAGUCUUUAAACCAAUAGAUUGCAUCGGUUUAAAAGGCAAGACCGUCAAAUUGCGGGAAAGGGGUCAACAGCCGUUCAGUACCAAGUCUCAGGGGAAACUUUGAGAUGGCCUUGCAAAGGGUAUGGUAAUAAGCUGACGGACAUGGUCCUAACCACGCAGCCAAGUCCUAAGUCAACAGAUCUUCUGUUGAUAUGGAUGCAGUUCACAGACUAAAUGUCGGUCGGGGAAGAUGUAUUCUUCUCAUAAGAUAUAGUCGGACCUCUCCUUAAUGGGAGCUAGCGGAUGAAGUGAUGCAACACUGGAGCCGCUGGGAACUAAUUUGUAUGCGAAAGUAUAUUGAUUAGUUUUGGAGUACUCGUGGUCG
The method, boiled down: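 Pooled colonies went to amplicon sequencing on an Illumina HiSeq 2500 after six replicate transformations. The plates were LB agar with 100 μg/mL carbenicillin, 50 μM IPTG and 0.2% rhamnose, with or without 25 μg/mL kanamycin, incubated overnight at 37°C or 30°C. The E. coli BL21(DE3) library had all eight P1ex-region intron nucleotides randomised, the intron placed in the knt kanamycin-resistance gene on pET-22b(+). DiMSum fitness is the error-weighted combination of replicate fold changes, kanamycin against none, normalised to wild type.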

± gives the uncertainty stated by the source.

As to CCUCAGCAAUAUUACGAUAG, the “self-splicing fitness (ln)” value by setting is: (30 °C) -0.572 ± 0.067; (37 °C) -1.24 ± 0.1.
With GGUUAGCAAUAUUACGAUGU, the “self-splicing fitness (ln)” value by setting is: (30 °C) -0.65 ± 0.14; (37 °C) -0.087 ± 0.15.
On to CUUGAGCAAUAUUACGUGAG, for which the “self-splicing fitness (ln)” value is, setting by setting: (30 °C) -2.89 ± 0.12; (37 °C) -1.28 ± 0.12.
Take ACUAAGCAAUAUUACGAUAA: the “self-splicing fitness (ln)” value by setting is: (30 °C) -1.94 ± 0.17; (37 °C) -0.57 ± 0.17.
The like results for AGCUAGCAAUAUUACGGGAU were, in that order, -2.04 ± 0.11 and -1.49 ± 0.13.
The like results for ACCCAGCAAUAUUACGGAGA were, in that order, -0.451 ± 0.048 and 0.122 ± 0.063.
Consider GGGUAGCAAUAUUACGCAUA, for which, under “37 °C”, the “self-splicing fitness (ln)” value is -0.676 ± 0.24.
GCCAAGCAAUAUUACGUUGA: the “self-splicing fitness (ln)” value runs as follows: (30 °C) -2.53 ± 0.065; (37 °C) -1.39 ± 0.065.
The like results for GUGCAGCAAUAUUACGACGU were, in that order, -0.779 ± 0.11 and 0.0794 ± 0.13.
UAGUAGCAAUAUUACGGCAA: the “self-splicing fitness (ln)” value (30 °C) is -0.858 ± 0.15 and the “self-splicing fitness (ln)” value (37 °C) is -1.04 ± 0.16.
For CGCCAGCAAUAUUACGUCCU, the “self-splicing fitness (ln)” value is -4.8 ± 0.36 (30 °C) and -2.45 ± 0.31 (37 °C).
As for AAGUAGCAAUAUUACGCGGG, the “self-splicing fitness (ln)” value runs as follows: (30 °C) -2.89 ± 0.19; (37 °C) -2.84 ± 0.2.
UCAGAGCAAUAUUACGUAGU: the “self-splicing fitness (ln)” value reads like this: (30 °C) -3.58 ± 0.43; (37 °C) -2.88 ± 0.35.
In the same order, the values of UGUCAGCAAUAUUACGCUGC are -3.54 ± 0.43 and -0.934 ± 0.25.
In the same order, the values of UCCCAGCAAUAUUACGUCGU are -1.69 ± 0.085 and -0.682 ± 0.11.
In the same order, the values of GGGGAGCAAUAUUACGCGGA are -2.24 ± 0.32 and -2.59 ± 0.36.
Regarding UUGCAGCAAUAUUACGACAC, the “self-splicing fitness (ln)” value runs as follows: (30 °C) -1.37 ± 0.19; (37 °C) -1.22 ± 0.47.
In the same order, the values of CUACAGCAAUAUUACGGACG are -0.196 ± 0.072 and 0.601 ± 0.1.
The like results for UAGUAGCAAUAUUACGAACG were, in that order, -0.961 ± 0.13 and -0.0932 ± 0.15.
For CCCUAGCAAUAUUACGACAU, the “self-splicing fitness (ln)” value is -3.809 ± 0.024 (30 °C) and -2.93 ± 0.039 (37 °C).
Consider UGUUAGCAAUAUUACGCUAG, for which the “self-splicing fitness (ln)” value by setting is: (30 °C) -1.94 ± 0.5; (37 °C) -1.4 ± 0.47.
The like results for ACCGAGCAAUAUUACGGAUG were, in that order, -2.12 ± 0.12 and -1.85 ± 0.098.
In the same order, the values of UUGAAGCAAUAUUACGAUCA are -0.786 ± 0.1 and 0.00258 ± 0.15.
Turning to AGGGAGCAAUAUUACGUCCA, the “self-splicing fitness (ln)” value by setting is: (30 °C) -1.11 ± 0.27; (37 °C) -0.389 ± 0.33.
Turning to GGUCAGCAAUAUUACGGCUA, the “self-splicing fitness (ln)” value is, setting by setting: (30 °C) 0.0808 ± 0.098; (37 °C) 0.494 ± 0.12.
Regarding UGGUAGCAAUAUUACGUCAU, the “self-splicing fitness (ln)” value by setting is: (30 °C) -2.49 ± 0.23; (37 °C) -2.57 ± 0.36.
In the same order, the values of ACUUAGCAAUAUUACGUCCC are -0.637 ± 0.21 and -0.072 ± 0.25.
As to CCGAAGCAAUAUUACGCGUA, the “self-splicing fitness (ln)” value (30 °C) was -3.7 ± 0.23 and the “self-splicing fitness (ln)” value (37 °C) is -2.84 ± 0.2.
As to CGCUAGCAAUAUUACGACGU, the “self-splicing fitness (ln)” value by setting is: (30 °C) -1.86 ± 0.1; (37 °C) -0.355 ± 0.12.
Turning to ACUUAGCAAUAUUACGAUAC, the “self-splicing fitness (ln)” value is, setting by setting: (30 °C) -3.82 ± 0.42; (37 °C) -2.28 ± 0.26.
As to AGAUAGCAAUAUUACGUCCU, the “self-splicing fitness (ln)” value reads like this: (30 °C) 0.545 ± 0.095; (37 °C) 0.159 ± 0.1.
Take GCAGAGCAAUAUUACGUGAA: the “self-splicing fitness (ln)” value was -3.15 ± 0.14 (30 °C) and -1.59 ± 0.19 (37 °C).
In the same order, the values of AAGGAGCAAUAUUACGUUCA are -1.44 ± 0.077 and -0.0364 ± 0.088.
In the same order, the values of UUAUAGCAAUAUUACGGUCA are -0.871 ± 0.13 and -0.305 ± 0.17.
CAAGAGCAAUAUUACGACGC: the “self-splicing fitness (ln)” value (37 °C) was -1.56 ± 0.32.
CCAAAGCAAUAUUACGCUGG: the “self-splicing fitness (ln)” value (30 °C) is -4.28 ± 0.23 and the “self-splicing fitness (ln)” value (37 °C) was -2.46 ± 0.17.
The like results for GAAAAGCAAUAUUACGUCCC were, in that order, -0.229 ± 0.17 and 0.0916 ± 0.2.
In the case of CCAGAGCAAUAUUACGCACC, the “self-splicing fitness (ln)” value (37 °C) is -2.37 ± 0.34.
